According to paper PMC5035961:

What was measured:
[1] = target: Influenza A nucleoprotein (strain A/WSN/1933, H1N1) (influenza A virus, H1N1 strain A/WSN/1933) (UniProt P15682); experiment: negative stain electron microscopy
[2] = target: Influenza A nucleoprotein (strain A/WSN/1933, H1N1) (influenza A virus, H1N1 strain A/WSN/1933) (UniProt P15682); experiment: SEC-MALLS

**Q.** Which stoichiometry N [1] does the source give for “Influenza A nucleoprotein (strain A/WSN/1933, H1N1) (from UniProt P15682 1-498) (natural protein)” here?
**A.** Its stoichiometry N is 3.

**Q.** What about the stoichiometry N [2] of the same substance?
**A.** Its stoichiometry N is 3.
